From PMC4117941 (Genes & Development, 2014)

Key:
[1] = biological target: Mcm3 (HA-Mcm3, subunit of the purified MCM2–7 hexamer) (S. cerevisiae, UniProt P24279 1-971); test: EM, three-dimensional reconstruction
[2] = biological target: T1, Mcm4 (subunit of the purified MCM2–7 hexamer) (S. cerevisiae, UniProt P30665 1-933); test: EM, three-dimensional reconstruction
T1 sequence: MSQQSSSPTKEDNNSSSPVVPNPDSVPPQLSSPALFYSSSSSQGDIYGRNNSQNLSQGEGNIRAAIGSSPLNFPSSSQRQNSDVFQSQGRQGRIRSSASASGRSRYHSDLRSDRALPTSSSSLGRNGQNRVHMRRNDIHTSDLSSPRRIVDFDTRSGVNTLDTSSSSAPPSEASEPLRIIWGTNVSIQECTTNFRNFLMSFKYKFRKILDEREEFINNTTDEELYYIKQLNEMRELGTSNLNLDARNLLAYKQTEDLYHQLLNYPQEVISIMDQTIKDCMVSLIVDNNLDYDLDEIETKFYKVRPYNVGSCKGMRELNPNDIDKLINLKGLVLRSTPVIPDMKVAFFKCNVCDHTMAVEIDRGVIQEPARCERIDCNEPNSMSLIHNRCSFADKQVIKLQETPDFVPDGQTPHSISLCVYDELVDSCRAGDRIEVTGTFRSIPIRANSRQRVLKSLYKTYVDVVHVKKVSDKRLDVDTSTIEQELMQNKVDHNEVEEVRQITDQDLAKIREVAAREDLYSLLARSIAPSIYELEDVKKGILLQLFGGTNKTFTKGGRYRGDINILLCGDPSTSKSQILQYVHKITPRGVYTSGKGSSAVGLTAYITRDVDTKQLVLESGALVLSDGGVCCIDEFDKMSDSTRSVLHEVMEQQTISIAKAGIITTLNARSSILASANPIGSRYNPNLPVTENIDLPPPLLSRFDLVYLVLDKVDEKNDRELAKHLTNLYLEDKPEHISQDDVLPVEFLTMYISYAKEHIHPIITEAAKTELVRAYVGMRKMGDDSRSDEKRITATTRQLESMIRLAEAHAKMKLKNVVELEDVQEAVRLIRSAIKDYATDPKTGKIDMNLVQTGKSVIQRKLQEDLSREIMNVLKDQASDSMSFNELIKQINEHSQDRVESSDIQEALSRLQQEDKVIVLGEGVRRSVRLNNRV

Chain of Mcm3 (HA-Mcm3, subunit of the purified MCM2–7 hexamer) (P24279 whole entry): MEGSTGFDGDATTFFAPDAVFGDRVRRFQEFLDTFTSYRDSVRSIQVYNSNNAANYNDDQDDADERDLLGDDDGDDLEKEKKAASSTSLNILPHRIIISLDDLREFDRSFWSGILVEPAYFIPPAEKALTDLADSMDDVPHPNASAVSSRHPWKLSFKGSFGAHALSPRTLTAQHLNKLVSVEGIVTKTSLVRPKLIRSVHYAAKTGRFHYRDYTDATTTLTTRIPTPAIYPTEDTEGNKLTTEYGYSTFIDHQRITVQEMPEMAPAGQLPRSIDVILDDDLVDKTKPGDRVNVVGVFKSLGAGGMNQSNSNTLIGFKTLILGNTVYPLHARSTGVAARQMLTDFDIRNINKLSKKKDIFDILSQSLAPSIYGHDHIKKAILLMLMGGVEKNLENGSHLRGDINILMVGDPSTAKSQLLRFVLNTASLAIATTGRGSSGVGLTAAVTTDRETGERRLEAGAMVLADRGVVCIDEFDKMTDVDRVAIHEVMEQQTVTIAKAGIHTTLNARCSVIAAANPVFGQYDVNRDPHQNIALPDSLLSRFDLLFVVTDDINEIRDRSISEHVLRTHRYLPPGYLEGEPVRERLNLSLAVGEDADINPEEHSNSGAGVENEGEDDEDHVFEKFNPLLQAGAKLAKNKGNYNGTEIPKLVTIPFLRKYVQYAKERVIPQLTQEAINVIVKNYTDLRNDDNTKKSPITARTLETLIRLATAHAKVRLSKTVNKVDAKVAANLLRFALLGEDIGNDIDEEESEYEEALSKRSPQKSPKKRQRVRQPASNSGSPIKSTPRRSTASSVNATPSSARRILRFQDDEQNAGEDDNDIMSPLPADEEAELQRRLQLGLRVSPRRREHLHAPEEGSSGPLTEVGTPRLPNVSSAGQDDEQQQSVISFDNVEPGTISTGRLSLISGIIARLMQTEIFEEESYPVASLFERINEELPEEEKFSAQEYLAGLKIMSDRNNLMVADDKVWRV

B1: Mcm7 (subunit of the purified MCM2–7 hexamer) (natural protein)
chain: MSAALPSIQLPVDYNNLFNEITDFLVTFKQDTLSSDATRNENEDENLDAENIEQHLLEKGPKYMAMLQKVANRELNSVIIDLDDILQYQNEKFLQGTQADDLVSAIQQNANHFTELFCRAIDNNMPLPTKEIDYKDDVLDVILNQRRLRNERMLSDRTNEIRSENLMDTTMDPPSSMNDALREVVEDETELFPPNLTRRYFLYFKPLSQNCARRYRKKAISSKPLSVRQIKGDFLGQLITVRGIITRVSDVKPAVEVIAYTCDQCGYEVFQEVNSRTFTPLSECTSEECSQNQTKGQLFMSTRASKFSAFQECKIQELSQQVPVGHIPRSLNIHVNGTLVRSLSPGDIVDVTGIFLPAPYTGFKALKAGLLTETYLEAQFVRQHKKKFASFSLTSDVEERVMELITSGDVYNRLAKSIAPEIYGNLDVKKALLLLLVGGVDKRVGDGMKIRGDINVCLMGDPGVAKSQLLKAICKISPRGVYTTGKGSSGVGLTAAVMKDPVTDEMILEGGALVLADNGICCIDEFDKMDESDRTAIHEVMEQQTISISKAGINTTLNARTSILAAANPLYGRYNPRLSPLDNINLPAALLSRFDILFLMLDIPSRDDDEKLAEHVTYVHMHNKQPDLDFTPVEPSKMREYIAYAKTKRPVMSEAVNDYVVQAYIRLRQDSKREMDSKFSFGQATPRTLLGIIRLSQALAKLRLADMVDIDDVEEALRLVRVSKESLYQETNKSKEDESPTTKIFTIIKKMLQETGKNTLSYENIVKTVRLRGFTMLQLSNCIQEYSYLNVWHLINEGNTLKFVDDGTMDTDQEDSLVSTPKLAPQTTASANVSAQDSDIDLQDA
B1: binds [1]; binds [2].
